Experimental data from patent US20200040070A1 (CHEMOMAB, published 2020).

Legend:
[1] = biological target: T1, Eotaxin 1 (CCL11) (human, UniProt P51671 24-97); test: SPR (Biacore T200), HCM101 immobilized on CM-1 chip, chemokine in solution; Eotaxin 1 (CCL11)
T1 construct: also called human CCL11
Experimental: (§1) The affinity constant of HCM101 was evaluated using Biacore T200. This method uses Surface Plasmon Resonance (SPR) electro-optical phenomenon to measure the binding constants and on/off rates between binding partners. HCM101 was immobilized on a surface of a CM-1 chip, and a solution of eotaxin 1 (CCL11)/MCP3 (CCL7) was passed over the surface. The changes in SPR angle were measured and enabled to determine the KD (equilibrium dissociation constant).
(§2) Biacore, an SPR based technology was used in order to examine the binding affinity of HCM101, generated by CHO cells, to other, non-CCL24 chemokines.

[2] = biological target: MCP3 (CCL7) (UniProt P80098 24-99); test: SPR (Biacore T200), HCM101 immobilized on CM-1 chip, chemokine in solution; MCP3 (CCL7)
Sequence of MCP3 (CCL7) (P80098 24-99 limits assumed): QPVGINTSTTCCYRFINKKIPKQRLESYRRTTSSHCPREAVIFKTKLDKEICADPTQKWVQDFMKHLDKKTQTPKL
Experimental: as §1, §2

Kd [1]: 30 nM
Kd [2]: 130 nM
B1: fully humanized anti CCL24 antibody HCM101 (antibody, V domains shown)
VH: QIQLVQSGPELKKPGASVKVSCRASGYPFTNSGMNWVKQAPGKGLKWMGWINTYNGEPTYTDDFKGRFAFSLETSASTAYLQINNLRNEDTATYFCASHSYGSSYAMDNWGQGTSVTVSS
VL: DIVLTQSPDSLAVSLGERATINCKASQSVDYDGDSYMNWYQQKPGQPPKLLIYVASNLKSGIPARFSGSGSGTDFTLTISSLQPEDFATYYCQQSNEEPWTFGGGTKVEIK
notes: also called humanized version of CM101
